# Measured values as given in publication PMC8460662.
# Target: AlexaFluor594-tagged pre-formed fibrils (PFFs) of alpha-synuclein (UniProt P37840)
# Assay: two-colour coincidence detection (TCCD), single-molecule fluorescence; AF594-labelled α-SYN fibrils added to LTE expressing the N-GFP LB protein; fibrils at 1 µM (monomer-equivalent); stationary plate; 300 s traces, quadruplicate; Association Quotient Q
substance,measurement,value
GABARAPL1 (from UniProt Q9H0R8 1-117) (natural protein),relative presence of GFP species in the aggregates (fraction bound to fibrils),0.14
